Experimental findings from patent publication US20070036793A1, “Methods for use of an lkb1/strad7mo25 complex” (priority 2003, published 2007) are described below.

The chains are these.
B1: GST-STRADα lacking the C-terminal 88 residues (other, human)
chain: DYKDDDDKMSFLVSKPERIRRWVSEKFIVEGLRDLELFGEQPPGDTRRKTNDASSESIASFSKQEVMSSFLPEGGCYELLTVIGKGFEDLMTVNLARYKPTGEYVTVRRINLEACSNEMVTFLQGELHVSKLFNHPNIVPYRATFIADNELWVVTSFMAYGSAKDLICTHFMDGMNELAIAYILQGVLKALDYIHHMGYVHRSVKASHILISVDGKVYLSGLRSNLSMISHGQRQRVVHDFPKYSVKVLPWLSPEVLQQNLQGYDAKSDIYSVGITACELANGHVPFKDMPATQMLLEKLNGTVPCLLDTSTIPAEELTMSPSRSVANSGLSDSLTTSTPRPSNGDSPSHP
notes: not shown: glutathione S-transferase (GST) tag, N-terminal, pEBG-2T vector
B2: N-terminal Myc-tagged MO25α (other, human, UniProt Q9Y376 1-341, looked up)
chain: MPFPFGKSHKSPADIVKNLKESMAVLEKQDISDKKAEKATEEVSKNLVAMKEILYGTNEKEPQTEAVAQLAQELYNSGLLSTLVADLQLIDFEGKKDVAQIFNNILRRQIGTRTPTVEYICTQQNILFMLLKGYESPEIALNCGIMLRECIRHEPLAKIILWSEQFYDFFRYVEMSTFDIASDAFATFKDLLTRHKLLSAEFLEQHYDRFFSEYEKLLHSENYVTKRQSLKLLGELLLDRHNFTIMTKYISKPENLKLMMNLLRDKSRNIQFEAFHVFKVFVANPNKTQPILDILLKNQAKLIEFLSKFQNDRTEDEQFNDEKTYLVKQIRDLKRPAQQEA
notes: also called Myc-MO25α; myc-MO25α; not shown: only the DNA primer is printed

Assay [1] addresses T1, N-terminal Flag epitope tagged wild type LKB1 (mouse, UniProt Q9WTK7 1-436).
T1 construct: not restated for the HeLa lines; also called Flag-LKB1; WT LKB1
T1 sequence: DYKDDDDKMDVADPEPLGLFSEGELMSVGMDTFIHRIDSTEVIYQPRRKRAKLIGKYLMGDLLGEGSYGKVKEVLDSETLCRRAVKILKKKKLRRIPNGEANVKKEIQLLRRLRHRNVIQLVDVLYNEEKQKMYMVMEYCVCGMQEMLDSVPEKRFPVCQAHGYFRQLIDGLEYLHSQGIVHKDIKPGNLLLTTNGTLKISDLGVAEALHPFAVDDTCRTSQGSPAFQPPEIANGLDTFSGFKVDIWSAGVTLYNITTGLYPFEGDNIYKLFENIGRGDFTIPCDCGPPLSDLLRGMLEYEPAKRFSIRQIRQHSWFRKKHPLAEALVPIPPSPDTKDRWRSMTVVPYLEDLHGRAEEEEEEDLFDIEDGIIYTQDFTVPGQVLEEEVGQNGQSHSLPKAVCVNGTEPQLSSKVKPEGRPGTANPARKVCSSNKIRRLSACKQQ
Put plainly: GST pull-down from co-transfected 293 cells. Here is the method: (§1) FIG. 7. Binding of LKB1 to STRADα creates novel binding site(s) for MO25α. […] Similar results were obtained in 3 separate experiments.
(§2) Expression of GST-fusion proteins in 293 cells and affinity purification. 10-cm diameter dishes of 293 cells were transiently transfected with 3 to 10 μg of the pEBG-2T constructs using a modified calcium phosphate method (Alessi et al., 1996). 36 h post-transfection, the cells were lysed and the clarified lysates were incubated for 1 h on a rotating platform with glutathione-Sepharose (25 μl/dish of lysate) previously equilibrated in lysis Buffer. The beads were washed 4 times with lysis Buffer containing 150 mM NaCl and twice with Buffer A. For immunoblotting analysis, the beads were then resuspended in SDS sample Buffer after this step to give a final volume of slurry of 75 μl, and the samples immunoblotted as described above. For protein kinase assays and gel electrophoresis, the beads were washed a further twice with Buffer A containing 0.27 M sucrose and the proteins were eluted from the resin by incubation with the same buffer containing 20 mM of glutathione. The beads were then removed by filtration through a 0.44-μm filter and the eluate divided into aliquots and stored at −80° C.

The target of assay [2] is B1. Put plainly: GST pull-down from co-transfected 293 cells. As for the experimental part: as §1, §2
In assay [3] the target is T2, Flag-tagged STRADα (human, UniProt Q7RTN6 1-431, limits assumed).
T2 construct: pCMV5 vector; also called Flag-STRADα; FLAG-STRADα
T2 sequence: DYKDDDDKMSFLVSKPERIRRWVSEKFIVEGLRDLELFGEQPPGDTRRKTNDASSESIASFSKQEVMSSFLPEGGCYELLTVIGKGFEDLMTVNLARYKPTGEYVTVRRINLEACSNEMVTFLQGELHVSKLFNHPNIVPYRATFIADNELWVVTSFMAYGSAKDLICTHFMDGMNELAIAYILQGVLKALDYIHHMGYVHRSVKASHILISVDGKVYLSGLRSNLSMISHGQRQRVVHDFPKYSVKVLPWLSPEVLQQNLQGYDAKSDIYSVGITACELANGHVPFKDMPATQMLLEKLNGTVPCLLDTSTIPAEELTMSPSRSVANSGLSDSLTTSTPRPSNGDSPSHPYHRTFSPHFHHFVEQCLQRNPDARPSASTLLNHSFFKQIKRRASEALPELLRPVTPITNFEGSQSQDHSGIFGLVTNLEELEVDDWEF
Put plainly: heterotrimeric complex purified through GST-LKB1 from co-transfected 293 cells, colloidal blue gel and blots. As for the experimental part:
(§3) FIG. 4. MO25α is associated with LKB1 through STRAD (A) 293 cells were transfected with plasmids encoding for the expression of the indicated GST fusion proteins together with Myc-MO25α. 36 h post transfection, the GST tagged proteins were affinity purified from the cell lysates using glutathione-Sepharose as described in Materials and Methods. […] 5 μg of total cell lysates prior to affinity purification were also subjected to immunoblotting with anti-Myc antibody to ensure that Myc-MO25α was expressed at similar levels in each co-transfection (lower panel). (B) N-terminal GST tagged LKB1 was expressed in 293 cells in the presence or absence of Flag-STRADα and purified as above. The purified proteins were subjected to SDS-polyacrylamide gel electrophoresis and visualised by Colloidal blue staining (upper panel). The faint protein band indicated, corresponding to an endogenous protein of 40-kDa (marked *), was identified by tryptic peptide mass-spectral fingerprint as endogenously expressed MO25α (with 38% sequence coverage). The purified proteins were also immunoblotted with the indicated antibodies (lower panels). (C) As above except that GST-LKB1 was expressed in 293 cells together with the indicated isoforms of Flag-STRAD and Myc-MO25 and the proteins visualised by colloidal blue staining were also immunoblotted with the indicated antibodies. For all panels, similar results were obtained in at least 3 separate experiments.
(§4) Expression of GST-fusion proteins in 293 cells and affinity purification. 10-cm diameter dishes of 293 cells were transiently transfected with 3 to 10 μg of the pEBG-2T constructs using a modified calcium phosphate method (Alessi et al., 1996). 36 h post-transfection, the cells were lysed and the clarified lysates were incubated for 1 h on a rotating platform with glutathione-Sepharose (25 μl/dish of lysate) previously equilibrated in lysis Buffer.

For assay [4], the target named is T3, Flag-tagged STRADβ (human, UniProt Q9C0K7 1-418).
T3 construct: pCMV5 vector; also called Flag-STRADβ; FLAG-STRADβ
T3 sequence: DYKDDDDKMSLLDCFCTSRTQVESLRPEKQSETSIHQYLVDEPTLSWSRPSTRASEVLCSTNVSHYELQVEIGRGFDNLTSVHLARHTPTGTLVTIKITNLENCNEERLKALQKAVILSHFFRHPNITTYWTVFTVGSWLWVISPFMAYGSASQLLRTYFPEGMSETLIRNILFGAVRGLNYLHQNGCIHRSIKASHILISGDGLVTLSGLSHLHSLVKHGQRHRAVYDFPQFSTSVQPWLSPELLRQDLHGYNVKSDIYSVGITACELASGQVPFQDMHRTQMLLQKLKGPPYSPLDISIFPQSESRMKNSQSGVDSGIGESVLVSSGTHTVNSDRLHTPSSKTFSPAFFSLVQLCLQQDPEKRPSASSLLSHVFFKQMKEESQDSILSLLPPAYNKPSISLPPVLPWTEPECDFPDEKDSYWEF
The assay is described as above. As for the experimental part:
as §3, §4

Assay [5] deals with T4, GST-STRADα lacking the last 3 amino acids (Trp-Glu-Phe) (human, UniProt Q7RTN6 1-428).
T4 construct: not shown: glutathione S-transferase (GST) tag, N-terminal, pEBG-2T vector
T4 sequence: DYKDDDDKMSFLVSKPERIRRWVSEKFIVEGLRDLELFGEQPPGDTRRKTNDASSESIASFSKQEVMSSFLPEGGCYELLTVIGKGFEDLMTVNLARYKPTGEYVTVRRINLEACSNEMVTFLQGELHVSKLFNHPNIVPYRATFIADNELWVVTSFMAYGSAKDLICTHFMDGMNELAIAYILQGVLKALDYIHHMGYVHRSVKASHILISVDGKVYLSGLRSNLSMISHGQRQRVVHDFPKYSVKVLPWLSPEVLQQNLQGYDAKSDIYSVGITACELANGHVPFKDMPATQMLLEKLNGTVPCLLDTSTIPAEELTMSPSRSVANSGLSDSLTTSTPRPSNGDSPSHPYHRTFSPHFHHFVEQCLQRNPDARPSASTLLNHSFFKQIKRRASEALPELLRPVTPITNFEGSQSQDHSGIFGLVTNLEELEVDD
The experiment in a line: GST pull-down from co-transfected 293 cells, anti-Myc blot. Here is the method:
5 μg of the total cell lysates prior to affinity purification were also subjected to immunoblotting with anti-Myc antibody to ensure that Myc-MO25α was expressed at similar levels in each condition (lower panel). (B) 0.5 mg of the indicated cell lysates was incubated with 5 μg of an N-terminal biotinylated peptide encompassing either the C-terminal 12 residues STRADα conjugated to streptavidin-Sepharose ([…], termed STRADα-C12) or mutants of this peptide in which the indicated residues were individually mutated to Ala. Following isolation and washing of the beads, the samples were subjected to SDS-polyacrylamide gel electrophoresis and immunoblotted with an anti-MO25α antibody. (C) Binding of bacterially expressed MO25α to the indicated peptides was analysed by surface plasmon resonance BiaCore analysis as described in Materials and Methods. […] WEF-C12 corresponds to […], WEA-C12 corresponds to […], AEF-C12 corresponds to […], WAF-C12 corresponds to […], WEF-C6 corresponds to VDDWEF.
Expression of GST-fusion proteins in 293 cells and affinity purification. 10-cm diameter dishes of 293 cells were transiently transfected with 3 to 10 μg of the pEBG-2T constructs using a modified calcium phosphate method (Alessi et al., 1996). […]

In the case of B1, the binding result in assay [1] is recorded as “no binding”.

Turning to B2, the binding result was “no binding” in assay [2], “binds” in assay [3], “binds” in assay [4] and “no binding” in assay [5].
